According to IntAct's records for PubMed 23524951:

B1: Activating molecule in BECN1-regulated autophagy protein 1 (Homo sapiens), Q9C0C7-3 (parent)
chain: MKVVPEKNAVRILWGRERGARAMGAQRLLQELVEDKTRWMKWEGKRVELPDSPRSTFLLAFSPDRTLLASTHVNHNIYITEVKTGKCVHSLIGHRRTPWCVTFHPTISGLIASGCLDGEVRIWDLHGGSESWFTDSNNAIASLAFHPTAQLLLIATANEIHFWDWSRREPFAVVKTASEMERVRLVRFDPLGHYLLTAIVNPSNQQGDDEPEIPIDGTELSHYRQRALLQSQPVRRTPLLHNFLHMLSSRSSGIQVGEQSTVQDSATPSPPPPPPQPSTERPRTSAYIRLRQRVSYPTAECCQHLGILCLCSRCSGTRVPSLLPHQDSVPPASARATTPSFSFVQTEPFHPPEQASSTQQDQGLLNRPSAFSTVQSSTAGNTLRNLSLGPTRRSLGGPLSSHPSRYHREIAPGLTGSEWTRTVLSLNSRSEAESMPPPRTSASSVSLLSVLRQQEGGSQASVYTSATEGRGFPASGLATESDGGNGSSQNNSGSIRHELQCDLRRFFLEYDRLQELDQSLSGEAPQTQQAQEMLNNNIESERPGPSHQPTPHSSENNSNLSRGHLNRCRACHNLLTFNNDTLRWERTTPNYSSGEASSSWQVPSSFESVPSSGSQLPPLERTEGQTPSSSRLELSSSASPQEERTVGVAFNQETGHWERIYTQSSRSGTVSQEALHQDMPEESSEEDSLRRLSPAAYYAQRMIQYLSRRDSIRQRSMRYQQNRLRSSTSSSSSDNQGPSVEGTDLEFEDFEDNGDRSRHRAPRNARMSAPSLGRFVPRRFLLPEYLPYAGIFHERGQPGLATHSSVNRVLAGAVIGDGQSAVASNIANTTYRLQWWDFTKFDLPEISNASVNVLVQNCKIYNDASCDISADGQLLAAFIPSSQRGFPDEGILAVYSLAPHNLGEMLYTKRFGPNAISVSLSPMGRYVMVGLASRRILLHPSTEHMVAQVFRLQQAHGGETSMRRVFNVLYPMPADQRRHVSINSARWLPEPGLGLAYGTNKGDLVICRPEALNSGVEYYWDQLNETVFTVHSNSRSSERPGTSRATWRTDRDMGLMNAIGLQPRNPATSVTSQGTQTLALQLQNAETQTEREVPEPGTAASGPGEGEGSEYGASGEDALSRIQRLMAEGGMTAVVQREQSTTMASMGGFGNNIIVSHRIHRSSQTGTEPGAAHTSSPQPSTSRGLLPEAGQLAERGLSPRTASWDQPGTPGREPTQPTLPSSSPVPIPVSLPSAEGPTLHCELTNNNHLLDGGSSRGDAAGPRGEPRNR
partner: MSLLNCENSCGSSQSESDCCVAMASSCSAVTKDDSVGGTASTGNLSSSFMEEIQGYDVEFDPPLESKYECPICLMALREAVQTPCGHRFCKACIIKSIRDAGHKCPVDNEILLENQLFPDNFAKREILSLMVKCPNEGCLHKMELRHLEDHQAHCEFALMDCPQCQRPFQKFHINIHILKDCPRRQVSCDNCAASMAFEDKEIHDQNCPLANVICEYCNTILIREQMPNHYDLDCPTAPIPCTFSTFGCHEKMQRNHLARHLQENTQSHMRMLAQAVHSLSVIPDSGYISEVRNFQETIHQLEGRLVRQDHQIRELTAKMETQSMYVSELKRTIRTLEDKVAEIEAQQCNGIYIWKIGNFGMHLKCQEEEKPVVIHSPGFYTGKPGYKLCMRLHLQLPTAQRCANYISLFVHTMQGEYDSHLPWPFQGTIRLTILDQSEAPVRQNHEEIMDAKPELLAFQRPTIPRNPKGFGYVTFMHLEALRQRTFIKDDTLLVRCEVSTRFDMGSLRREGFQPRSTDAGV

Variants of: B1
Conditions: with traf6_human TRAF6, Q9Y4K3

Variant | effect of a mutation on the interaction
E620A | disrupting interaction strength
